Source: the supplement of paper PMC10567573

B1: DCAF4 (parent)
chain: TTKCVRQYEGHVNEYAYLPLHVHE
B2: LPCAT4 (parent)
chain: HDPLYGKLFSTYLRPPHTSRGTSQ

Variants of: B1
Experiment: protein stability index of a GFP-peptide fusion (GPS, HEK-293T) (PSI 1-6); higher = more stable
Details: c terminus: a fixed tail appended
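Further: lentivirally expressed fusions sorted by FACS into six bins by GFP to DsRed ratio, PSI derived from sequencing read proportions per bin multiplied by bin number.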

Row | Variant | protein stability index
1 | N13C | 2.35
2 | N13F | 2.02
3 | N13A | 2.64
4 | N13V | 2.23
5 | N13W | 1.87
6 | N13Y | 2.09
7 | N13Q | 2.32
8 | N13I | 1.66
9 | N13K | 2.48
10 | N13L | 2.85
11 | N13R | 2.31
12 | N13E | 3.55
13 | N13M | 1.88
14 | N13G | 3.04
15 | N13T | 2.64
16 | N13P | 3.12
17 | N13D | 2.35
18 | N13H | 2.5
19 | N13S | 2.78
20 | H21F | 1.87
21 | H21M | 2.46
22 | H21S | 3.05
23 | H21K | 2.16
24 | H21D | 3.55
25 | H21I | 2.12
26 | H21V | 2.25

Row | Variant | protein stability index
27 | H21Y | 1.9
28 | H21G | 2.06
29 | H21W | 1.75
30 | H21R | 2.69
31 | H21N | 3.33
32 | H21A | 2.58
33 | H21P | 2.63
34 | H21L | 2.2
35 | H21C | 2.56
36 | H21T | 2.8
37 | H21Q | 2.66
38 | H21E | 3.27
39 | H11L | 1.95
40 | H11N | 2.96
41 | H11T | 3.25
42 | H11Q | 2.53
43 | H11W | 1.81
44 | H11D | 2.88
45 | H11I | 2.75
46 | H11P | 3.25
47 | H11C | 2.1
48 | H11Y | 2.84
49 | H11M | 2.26
50 | H11G | 2.38
51 | H11K | 2.66
52 | H11F | 1.88

Row | Variant | protein stability index
53 | H11R | 2.44
54 | H11E | 3.17
55 | H11V | 3.56
56 | H11A | 2.7
57 | H11S | 2.6
58 | Y8F | 2.69
59 | Y8N | 3.31
60 | Y8P | 2.42
61 | Y8C | 2.66
62 | Y8V | 3.17
63 | Y8L | 2.79
64 | Y8K | 3.52
65 | Y8T | 3.15
66 | Y8I | 2.82
67 | Y8A | 2.65
68 | Y8Q | 3.39
69 | Y8D | 3.75
70 | Y8R | 2.94
71 | Y8M | 2.89
72 | Y8W | 2.42
73 | Y8S | 3.19
74 | Y8E | 4.03
75 | Y8G | 3.12
76 | Y8H | 2.64
77 | E24R | 2.18
78 | E24K | 2.29

Row | Variant | protein stability index
79 | E24A | 1.17
80 | E24H | 2.23
81 | E24Y | 1.89
82 | E24P | 2.24
83 | E24L | 2.14
84 | E24F | 2.85
85 | E24I | 2.1
86 | E24W | 2.67
87 | E24D | 2.84
88 | E24G | 2.75
89 | E24T | 2.1
90 | E24N | 2.46
91 | E24S | 2.07
92 | E24M | 1.84
93 | E24C | 2.25
94 | E24V | 2.02
95 | E24Q | 2.29
96 | G10F | 1.66
97 | G10M | 2.06
98 | G10I | 1.43
99 | G10Y | 2.29
100 | G10P | 2.18
101 | G10N | 2.11
102 | G10W | 1.65
103 | G10T | 2.57
104 | G10V | 2.14

Row | Variant | protein stability index
105 | G10C | 2.61
106 | G10S | 2.69
107 | G10Q | 2.24
108 | G10R | 2.3
109 | G10K | 3.44
110 | G10L | 2.11
111 | G10A | 2.37
112 | G10D | 3.07
113 | G10E | 3.3
114 | G10H | 2.31
115 | P19T | 1.53
116 | P19S | 1.46
117 | P19Y | 2.67
118 | P19D | 3.02
119 | P19M | 2.47
120 | P19F | 1.71
121 | P19N | 2.33
122 | P19A | 1.89
123 | P19K | 1.87
124 | P19R | 1.91
125 | P19I | 2.46
126 | P19L | 2.16
127 | P19V | 2.22
128 | P19Q | 1.75
129 | P19H | 1.96
130 | P19G | 2.26

Row | Variant | protein stability index
131 | P19E | 1.82
132 | P19W | 2.57
133 | P19C | 1.84
134 | H23S | 2.73
135 | H23C | 2.52
136 | H23P | 3.32
137 | H23Y | 2.24
138 | H23N | 2.81
139 | H23V | 2.19
140 | H23L | 2.51
141 | H23T | 2.37
142 | H23R | 2.48
143 | H23M | 2.12
144 | H23F | 1.46
145 | H23D | 3.45
146 | H23Q | 3.38
147 | H23E | 3.21
148 | H23W | 1.9
149 | H23G | 2.76
150 | H23A | 2.78
151 | H23K | 3.44
152 | H23I | 3.56
153 | Y15A | 3.57
154 | Y15R | 3.43
155 | Y15T | 2.59
156 | Y15G | 3.84

Row | Variant | protein stability index
157 | Y15N | 2.88
158 | Y15F | 3.08
159 | Y15Q | 3.32
160 | Y15M | 2.96
161 | Y15V | 3
162 | Y15S | 3.28
163 | Y15K | 2.85
164 | Y15P | 3.51
165 | Y15I | 3.09
166 | Y15E | 3.6
167 | Y15C | 3.56
168 | Y15H | 3.02
169 | Y15D | 3.36
170 | Y15L | 2.97
171 | Y15W | 2.12
172 | A16C | 2.44
173 | A16G | 2.13
174 | A16R | 2.6
175 | A16P | 3.02
176 | A16V | 2.2
177 | A16S | 2.45
178 | A16D | 2.54
179 | A16E | 3.31
180 | A16W | 1.84
181 | A16H | 3.05
182 | A16L | 2.33

Row | Variant | protein stability index
183 | A16K | 2.71
184 | A16Q | 3.01
185 | A16I | 2.2
186 | A16Y | 1.87
187 | A16F | 2.32
188 | A16T | 2.82
189 | A16M | 2.34
190 | A16N | 2.6
191 | Y17H | 2.94
192 | Y17R | 3.06
193 | Y17K | 2.96
194 | Y17N | 3.08
195 | Y17F | 2.55
196 | Y17V | 2.81
197 | Y17C | 3.51
198 | Y17L | 3.79
199 | Y17E | 4.23
200 | Y17A | 4.37
201 | Y17T | 3.65
202 | Y17D | 4.01
203 | Y17P | 3.82
204 | Y17W | 2.69
205 | Y17G | 3.37
206 | Y17S | 3.24
207 | Y17Q | 3.27
208 | Y17I | 2.86

Row | Variant | protein stability index
209 | Y17M | 3.06
210 | V22T | 3.12
211 | V22M | 3.06
212 | V22N | 3.19
213 | V22H | 2.96
214 | V22A | 2.79
215 | V22I | 2.42
216 | V22P | 2.63
217 | V22S | 3.24
218 | V22C | 2.54
219 | V22Y | 2.43
220 | V22E | 3.65
221 | V22F | 2.01
222 | V22K | 3.27
223 | V22D | 3.85
224 | V22L | 2.54
225 | V22Q | 3.3
226 | V22R | 2.58
227 | V22G | 2.13
228 | V22W | 2.61
229 | E14G | 2.29
230 | E14D | 2.79
231 | E14H | 2.05
232 | E14F | 3.16
233 | E14A | 1.85
234 | E14P | 2.57

Row | Variant | protein stability index
235 | E14L | 1.63
236 | E14C | 2.03
237 | E14Q | 2.35
238 | E14W | 1.14
239 | E14V | 1.44
240 | E14M | 1.43
241 | E14Y | 1.64
242 | E14K | 2.64
243 | E14N | 2.47
244 | E14T | 2.23
245 | E14R | 2.34
246 | E14S | 2.05
247 | L18K | 2.76
248 | L18D | 3.8
249 | L18W | 2.28
250 | L18P | 2.75
251 | L18M | 2.82
252 | L18A | 2.92
253 | L18I | 2.26
254 | L18C | 2.74
255 | L18S | 2.98
256 | L18E | 3.58
257 | L18Y | 2.38
258 | L18G | 3.09
259 | L18R | 2.89
260 | L18N | 3.15

Row | Variant | protein stability index
261 | L18T | 2.79
262 | L18H | 3.09
263 | L18F | 2.51
264 | L18Q | 3.16
265 | L18V | 2.48
266 | E9T | 1.91
267 | E9M | 2.32
268 | E9R | 2.18
269 | E9S | 2.04
270 | E9P | 2.51
271 | E9N | 2.52
272 | E9Q | 2.52
273 | E9K | 2.13
274 | E9L | 2.12
275 | E9V | 2.42
276 | E9W | 1.61
277 | E9D | 3.04
278 | E9H | 1.97
279 | E9F | 1.76
280 | E9G | 2.55
281 | E9I | 1.87
282 | E9Y | 1.97
283 | E9A | 2.29
284 | E9C | 1.63
285 | V12S | 2.78
286 | V12C | 2.48

Row | Variant | protein stability index
287 | V12A | 3.03
288 | V12G | 3.13
289 | V12R | 2.6
290 | V12Q | 2.58
291 | V12H | 2.71
292 | V12D | 3.19
293 | V12K | 3.33
294 | V12L | 2.76
295 | V12P | 2.69
296 | V12M | 2.86
297 | V12I | 2.52
298 | V12E | 3.35
299 | V12Y | 2.52
300 | V12N | 2.98
301 | V12W | 2.07
302 | V12F | 2.11
303 | V12T | 2.85
304 | Q7Y | 1.79
305 | Q7V | 2.24
306 | Q7P | 2.06
307 | Q7W | 1.88
308 | Q7S | 2.75
309 | Q7T | 2.97
310 | Q7N | 2.54
311 | Q7R | 2.28
312 | L20F | 2.35

Row | Variant | protein stability index
313 | L20Y | 2.32
314 | L20T | 2.85
315 | L20N | 3.1
316 | L20W | 2.33
317 | L20P | 3.31
318 | L20S | 3.13
319 | L20G | 2.41
320 | L20D | 3.64
321 | L20I | 2.74
322 | L20C | 2.67
323 | L20Q | 3.06
324 | L20V | 2.44
325 | L20R | 3.21
326 | L20E | 3.53
327 | L20K | 2.8
328 | L20H | 3
329 | L20M | 2.63
330 | L20A | 2.78

Variants of: B2
Experiment: as above
Details: c terminus: a fixed tail appended

Row | Variant | protein stability index
331 | H1D | 3.52
332 | H1A | 4.01
333 | H1E | 2.83
334 | H1C | 3.66
